The record followed here is the supplement of paper PMC9112550, “Optimization of the antimicrobial peptide Bac7 by deep mutational scanning” (BMC Biology, 2022).
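Also: peptides expressed intracellularly from a pBAD plasmid library in pooled LB shake-flask culture, induced with 0.3% L-arabinose, DNA abundance read by NGS, three biological replicates, DESeq2 with apeglm shrinkage.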

The series concerns Escherichia coli TOP10. Put plainly: shrunken log2 fold change of peptide-encoding DNA abundance (4.5 h post-induction vs induction); higher = less antimicrobial activity (less host growth inhibition). The following applies: time post-induction: 4.5 h; library: site-saturation at positions 5, 18, 19, 20.
On to RRIRRRPPRLPRPRPRPMINPRP, for which the “shrunken log2 fold change” value was -0.157.
Turning to RRIRWRPPRLPRPRPRPCVEPRP, the “shrunken log2 fold change” value was 0.153.
In the case of RRIRWRPPRLPRPRPRPAKWPRP, the “shrunken log2 fold change” value came to 0.386.
Regarding RRIRRRPPRLPRPRPRPETEPRP, the “shrunken log2 fold change” value was determined as 0.783.
With RRIRPRPPRLPRPRPRPSKVPRP, the “shrunken log2 fold change” value is -0.223.
For RRIRCRPPRLPRPRPRPHPYPRP, the “shrunken log2 fold change” value is -0.296.
The result for RRIRSRPPRLPRPRPRPHKAPRP reads -0.1.
RRIRLRPPRLPRPRPRPDDPPRP: the “shrunken log2 fold change” value was found to be 0.00153.
The result for RRIRMRPPRLPRPRPRPQCPPRP reads -0.181; that for RRIRERPPRLPRPRPRPSSKPRP, -0.639; that for RRIRQRPPRLPRPRPRPYDGPRP, -0.101.
The result for RRIRERPPRLPRPRPRPWVHPRP reads -0.0432; that for RRIRVRPPRLPRPRPRPIGVPRP, -0.01.
For RRIRNRPPRLPRPRPRPSRKPRP, the “shrunken log2 fold change” value is -0.21.
Regarding RRIRIRPPRLPRPRPRPHARPRP, the “shrunken log2 fold change” value was 3.76.
For RRIRYRPPRLPRPRPRPYWCPRP the value was -0.0606; for RRIRIRPPRLPRPRPRPYKHPRP, -1.57.
As for RRIRCRPPRLPRPRPRPMAFPRP, the “shrunken log2 fold change” value is -0.22.
For RRIRLRPPRLPRPRPRPPEQPRP, the “shrunken log2 fold change” value is -0.0138.
Consider RRIRRRPPRLPRPRPRPGIHPRP, for which the “shrunken log2 fold change” value is 0.252.
For the sequence RRIRQRPPRLPRPRPRPWHSPRP, the “shrunken log2 fold change” value was -0.00968.
As to RRIRCRPPRLPRPRPRPLKMPRP, the “shrunken log2 fold change” value was -0.365.
For RRIRKRPPRLPRPRPRPGATPRP the value was 1.09.
Regarding RRIRIRPPRLPRPRPRPTVVPRP, the “shrunken log2 fold change” value is -0.0277.
The result for RRIRLRPPRLPRPRPRPGNWPRP reads 0.0269; that for RRIRVRPPRLPRPRPRPAPCPRP, 0.168; that for RRIRYRPPRLPRPRPRPHNPPRP, -1.15.
For RRIRARPPRLPRPRPRPPADPRP the value was 1.42.
For the sequence RRIRQRPPRLPRPRPRPYSWPRP, the “shrunken log2 fold change” value came out at 0.0415.
Turning to RRIRCRPPRLPRPRPRPSMSPRP, the “shrunken log2 fold change” value is -0.273.
On to RRIRVRPPRLPRPRPRPICTPRP, for which the “shrunken log2 fold change” value is -0.00144.
Take RRIRIRPPRLPRPRPRPIKFPRP: the “shrunken log2 fold change” value was -0.933.
For RRIRDRPPRLPRPRPRPIHQPRP the value was -0.241.
Take RRIRMRPPRLPRPRPRPWHYPRP: the “shrunken log2 fold change” value was -0.327.
For the sequence RRIRTRPPRLPRPRPRPFDIPRP, the “shrunken log2 fold change” value was -0.018.
Turning to RRIRHRPPRLPRPRPRPHSDPRP, the “shrunken log2 fold change” value is 0.0468.
Regarding RRIRSRPPRLPRPRPRPRHFPRP, the “shrunken log2 fold change” value was determined as 0.141.
Regarding RRIRWRPPRLPRPRPRPNFHPRP, the “shrunken log2 fold change” value is -0.0344.
Take RRIRGRPPRLPRPRPRPIKTPRP: the “shrunken log2 fold change” value turned out to be 0.143.
RRIRKRPPRLPRPRPRPSRVPRP: the “shrunken log2 fold change” value came out at 0.24.
Turning to RRIRDRPPRLPRPRPRPKNWPRP, the “shrunken log2 fold change” value turned out to be 2.51.
Regarding RRIRVRPPRLPRPRPRPCRGPRP, the “shrunken log2 fold change” value was found to be 1.11.
For RRIRLRPPRLPRPRPRPRWIPRP, the “shrunken log2 fold change” value is -0.074.
For RRIRTRPPRLPRPRPRPNQSPRP, the “shrunken log2 fold change” value was -0.187.
For the sequence RRIRARPPRLPRPRPRPRDKPRP, the “shrunken log2 fold change” value came out at 0.442.
As to RRIRTRPPRLPRPRPRPRSRPRP, the “shrunken log2 fold change” value is 0.143.
For RRIRARPPRLPRPRPRPVGWPRP the value was 1.02.
The result for RRIRIRPPRLPRPRPRPRIAPRP reads -0.0281.
RRIRTRPPRLPRPRPRPTVRPRP: the “shrunken log2 fold change” value was 2.09.
For RRIRTRPPRLPRPRPRPYNLPRP, the “shrunken log2 fold change” value is -0.336.
With RRIRERPPRLPRPRPRPCAQPRP, the “shrunken log2 fold change” value was -0.00638.
On to RRIRYRPPRLPRPRPRPNTGPRP, for which the “shrunken log2 fold change” value is -0.195.
The result for RRIRNRPPRLPRPRPRPCMCPRP reads 0.0188; that for RRIRLRPPRLPRPRPRPWPLPRP, -0.039.
RRIRHRPPRLPRPRPRPYIMPRP: the “shrunken log2 fold change” value is -0.431.
For RRIRCRPPRLPRPRPRPWHQPRP the value was -0.0304.
As to RRIRTRPPRLPRPRPRPMWRPRP, the “shrunken log2 fold change” value is -0.0938.
For the sequence RRIRERPPRLPRPRPRPGHDPRP, the “shrunken log2 fold change” value is -0.449.
The result for RRIRTRPPRLPRPRPRPDMDPRP reads 0.00854; that for RRIRNRPPRLPRPRPRPKTTPRP, 0.118; that for RRIRLRPPRLPRPRPRPQVVPRP, -0.252.
The result for RRIRNRPPRLPRPRPRPCKYPRP reads -1.14.
Regarding RRIRFRPPRLPRPRPRPLQYPRP, the “shrunken log2 fold change” value is -0.242.
Consider RRIRKRPPRLPRPRPRPLPMPRP, for which the “shrunken log2 fold change” value turned out to be 0.562.
As to RRIRDRPPRLPRPRPRPWCNPRP, the “shrunken log2 fold change” value is -0.378.
As for RRIRIRPPRLPRPRPRPYCNPRP, the “shrunken log2 fold change” value was -0.154.
On to RRIRERPPRLPRPRPRPKSHPRP, for which the “shrunken log2 fold change” value was -0.336.
As to RRIRGRPPRLPRPRPRPNTIPRP, the “shrunken log2 fold change” value was -0.184.
As for RRIRYRPPRLPRPRPRPRYRPRP, the “shrunken log2 fold change” value was -0.0551.
The result for RRIRLRPPRLPRPRPRPHNDPRP reads -0.452; that for RRIRSRPPRLPRPRPRPYDAPRP, -0.557.
Turning to RRIRGRPPRLPRPRPRPFCIPRP, the “shrunken log2 fold change” value is 0.494.
As for RRIRNRPPRLPRPRPRPSMAPRP, the “shrunken log2 fold change” value is -0.139.
For the sequence RRIRPRPPRLPRPRPRPTTPPRP, the “shrunken log2 fold change” value came out at 0.322.
As for RRIRFRPPRLPRPRPRPLPDPRP, the “shrunken log2 fold change” value worked out at 0.138.
Turning to RRIRARPPRLPRPRPRPFYGPRP, the “shrunken log2 fold change” value is -0.0165.
RRIRIRPPRLPRPRPRPINPPRP: the “shrunken log2 fold change” value was -0.362.
As to RRIRGRPPRLPRPRPRPPRSPRP, the “shrunken log2 fold change” value worked out at 1.19.
As for RRIRFRPPRLPRPRPRPEMKPRP, the “shrunken log2 fold change” value came to 0.0843.
On to RRIRGRPPRLPRPRPRPEDLPRP, for which the “shrunken log2 fold change” value was found to be 0.582.
For RRIRDRPPRLPRPRPRPQYEPRP the value was -0.025; for RRIRQRPPRLPRPRPRPNRNPRP, -0.658; for RRIRNRPPRLPRPRPRPIPMPRP, -0.026.
Take RRIRGRPPRLPRPRPRPYMHPRP: the “shrunken log2 fold change” value is -0.355.
In the case of RRIRRRPPRLPRPRPRPGSLPRP, the “shrunken log2 fold change” value is -0.00238.
The result for RRIRWRPPRLPRPRPRPGDTPRP reads -0.0199; that for RRIRTRPPRLPRPRPRPHDWPRP, 0.213; that for RRIRRRPPRLPRPRPRPTQRPRP, 0.625.
For RRIRPRPPRLPRPRPRPKRTPRP, the “shrunken log2 fold change” value is 0.0584.
In the case of RRIRFRPPRLPRPRPRPLVNPRP, the “shrunken log2 fold change” value was -0.0651.
Regarding RRIRARPPRLPRPRPRPSEVPRP, the “shrunken log2 fold change” value came to 0.258.
